PMC6256345 (2018)
Non-standard residues stand in square brackets, D forms with d. *: point of attachment. Pyrrolidinyl(2S-CHPh2) = c1ccc(C(c2ccccc2)[C@@H]2CCCN2*)cc1; pS = N[C@@H](COP(=O)(O)O)C(=O)O

What was measured:
[1] = target: T1, modified Tau peptide 3.2b pS214 epitope (Homo sapiens, UniProt P10636, phosphoS214, N-acetyl, C-terminal Gly-(S)-2-benzhydrylpyrrolidine); assay: FP competition
[2] = target: T2, modified Tau peptide 3.2f pS214 epitope (Homo sapiens, UniProt P10636, SMILES …); assay: FP competition
T2 chain: Ac-SRTP[pS]LP[dV]-{Pyrrolidinyl(2S-CHPh2)}

[3] = target: T3, modified Tau peptide 3.2d pS214 epitope (Homo sapiens, UniProt P10636, phosphoS214, N-acetyl, C-terminal D-Ala-(S)-2-benzhydrylpyrrolidine); assay: FP competition
[4] = target: T4, modified Tau peptide 3.2c pS214 epitope (Homo sapiens, UniProt P10636, phosphoS214, N-acetyl, C-terminal L-Ala-(S)-2-benzhydrylpyrrolidine); assay: FP competition
[5] = target: T5, modified Tau peptide 3.2a pS214 epitope (Homo sapiens, UniProt P10636, phosphoS214, N-acetyl, C-terminal L-Thr-(S)-2-benzhydrylpyrrolidine); assay: FP competition
[6] = target: T6, modified Tau peptide 3.2e pS214 epitope (Homo sapiens, UniProt P10636, SMILES …); assay: FP competition
T6 chain: Ac-SRTP[pS]LPV-{Pyrrolidinyl(2S-CHPh2)}

[7] = target: T1, modified Tau peptide 3.2b pS214 epitope; assay: ITC
[8] = target: T2, modified Tau peptide 3.2f pS214 epitope; assay: ITC
[9] = target: T3, modified Tau peptide 3.2d pS214 epitope; assay: ITC
[10] = target: T7, modified Tau peptide 4.2d-II pS214 epitope (Homo sapiens, UniProt P10636, also: regioisomer, substituent position not given here); assay: ITC
T7 chain: Ac-SRTP[pS]LPG-{(methoxyethoxy)‑substituted benzhydrylpyrrolidine}

[11] = target: T4, modified Tau peptide 3.2c pS214 epitope; assay: ITC
[12] = target: T8, modified Tau peptide 4.2f-I pS214 epitope (Homo sapiens, UniProt P10636, also: substituent position not given here); assay: ITC
T8 chain: Ac-SRTP[pS]LPG-{methoxy‑substituted benzhydrylpyrrolidine}

[13] = target: T5, modified Tau peptide 3.2a pS214 epitope; assay: ITC

B1: 14-3-3ζ (protein)
chain: MDKNELVQKAKLAEQAERYDDMAACMKSVTEQGAELSNEERNLLSVAYKNVVGARRSSWRVVSSIEQKTEGAEKKQQMAREYREKIETELRDICNDVLSLLEKFLIPNASQAESKVFYLKMKGDYYRYLAEVAAGDDKKGIVDQSQQAYQEAFEISKKEMQPTHPIRLGLALNFSVFYYEILNSPEKACSLAKTAFDEAIAELDTLSEESYKDSTLIMQLLRDNLTLWTSDTQGDEAEAGEGGEN
[1]
  IC50: 5.9 µM
[2]
  IC50: 7.6 µM
[3]
  IC50: 6.2 µM
[4]
  IC50: 5.3 µM
[5]
  IC50: 8.1 µM
[6]
  IC50: 6.2 µM
[7]
  Kd: 5.6 µM
[8]
  Kd: 3.4 µM
[9]
  Kd: 3 µM
[10]
  Kd: 20.6 µM
[11]
  Kd: 3.3 µM
[12]
  Kd: 4.7 µM
[13]
  Kd: 5.4 µM
